pKd: −log10 of the molar value.

Consider one substance from article PMC12533913.

Assay in all cases: SPR
In general terms: SPR reads the build-up and loss of mass on a sensor chip optically.

Assay [1] addresses Influenza A H1N1 (A/Puerto Rico/8/34/Mount Sinai) Matrix protein 1 / M1 Protein (His Tag) (Influenza A virus A/Puerto Rico/8/34/Mount Sinai (H1N1)) (UniProt P03485).
Assay [2] deals with Influenza A virus A/WSN/1933 (H1N1) particles, purified (Influenza A virus A/WSN/1933 (H1N1)) (UniProt P03470).
For assay [3], the target named is Influenza NA protein (recombinant, bought) (Influenza A virus (strain not stated)) (UniProt P03470).

Sequence of UniProt P03485 (P03485 whole entry): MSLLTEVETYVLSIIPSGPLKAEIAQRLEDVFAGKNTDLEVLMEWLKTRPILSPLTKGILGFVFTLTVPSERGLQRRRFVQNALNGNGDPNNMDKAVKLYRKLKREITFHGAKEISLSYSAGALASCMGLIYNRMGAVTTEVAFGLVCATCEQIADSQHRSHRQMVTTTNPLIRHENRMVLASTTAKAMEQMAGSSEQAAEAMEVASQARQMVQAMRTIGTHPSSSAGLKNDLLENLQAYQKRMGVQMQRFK

What is called pKd is the Kd on a negative log10 scale, so that one unit is a factor of ten. With “TfR1 protein (recombinant, bought from Sino Biological) (from UniProt P02786 1-760) (receptor)”, the pKd is 7.12 in assay [1], 7.46 in assay [2] and 7.37 in assay [3].
